Values quoted from earlier work in patent publication US7754242B2, “Inhalable sustained therapeutic formulations” (Alkermes, Inc., priority 2002, dated 2010).
Read-outs that look alike come from different tables or passages of the source.

Legend:
[1] = primates; dry powder formulation via pulmonary delivery
[2] = healthy volunteers; inhaled
[3] = human subjects; dry powder formulation via pulmonary delivery

Substance: insulin: Insulin given by pulmonary delivery (dry powder formulation, inhaled), literature reports
- Time to peak insulin level [1]: about 30 minutes
- Time to half-maximal action (glucose infusion rate) [2]: about 30 minutes
- Time to peak insulin level [3]: about 20 minutes
